Source: publication PMC8985213

Molecular target: BamD_(R49C) (E. coli) (UniProt P0AC02)
Assay: cross-linking

^MBP−76EspP_(D1218C)
percent crosslinked (plateau after oxidation with 4-DPS): 40% | percent crosslinked spontaneously (Ox-, no oxidant): 10%
